Some results are limits rather than exact numbers.

The target of this assay is T1, Fc fused human IL-18BP isoform a (IL-18BPa) (human), O95998.
T1 chain: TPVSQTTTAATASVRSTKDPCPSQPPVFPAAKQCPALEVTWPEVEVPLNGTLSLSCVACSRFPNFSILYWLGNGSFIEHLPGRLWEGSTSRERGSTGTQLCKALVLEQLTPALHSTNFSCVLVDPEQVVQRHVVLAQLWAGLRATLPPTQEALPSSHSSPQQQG
Kind of assay: SPR, Fc-IL-18BPa captured, 1:1 model. The conditions noted are these: remark: other sources report otherwise. On the technique in general: Surface plasmon resonance follows binding to a sensor surface in real time, without labels.

B1: Modified IL-18 polypeptide of SEQ ID NO: 2 (E06K, K53A, S55A), Q14116 37-193 (ligand)
chain: YFGKLKSKLSVIRNLNDQVLFIDQGNRPLFEDMTDSDCRDNAPRTIFIISMYADAQPRGMAVTISVKCEKISTLSCENKIISFKEMNPPDNIKDTKSDIIFFQRSVPGHDNKMQFESSSYEGYFLACEKERDLFKLILKKEDELGDRSIMFTVQNED
The term Kd denotes the concentration at which binding is half-saturated. A low value points to higher affinity. For orientation: koff means the first-order rate constant of dissociation. As a reminder, the kon is the second-order rate constant of association. Read a low kon as slower complex formation. B1 had a Kd of 323 nM, a koff of 0.0154 s⁻¹ and a kon of 47800 M⁻¹ s⁻¹.

B2: Modified IL-18 polypeptide of SEQ ID NO: 17 (E06K, K53A, S55A, C38S, C68S, C76S, C127S, K70C), Q14116 37-193 (ligand)
chain: YFGKLKSKLSVIRNLNDQVLFIDQGNRPLFEDMTDSDSRDNAPRTIFIISMYADAQPRGMAVTISVKSECISTLSSENKIISFKEMNPPDNIKDTKSDIIFFQRSVPGHDNKMQFESSSYEGYFLASEKERDLFKLILKKEDELGDRSIMFTVQNED
Regarding B2, the Kd was 1000 nM.

B3: Modified IL-18 polypeptide of SEQ ID NO: 3 (Y01G, F02A, E06K, M51G, K53A, D54A, S55A, T63A), Q14116 37-193 (ligand)
chain: GAGKLKSKLSVIRNLNDQVLFIDQGNRPLFEDMTDSDCRDNAPRTIFIISGYAAAQPRGMAVAISVKCEKISTLSCENKIISFKEMNPPDNIKDTKSDIIFFQRSVPGHDNKMQFESSSYEGYFLACEKERDLFKLILKKEDELGDRSIMFTVQNED
Take B3: the Kd was above 1000 nM.

Values taken from US20220056091A1.
